Values quoted from earlier work as cited in publication PMC9797105.

Tests used:
[1] = target: TRP channel PBM (Drosophila melanogaster) (UniProt P19334)
[2] = target: TARP γ-8 PBM (UniProt Q8WXS5)
Sequence of UniProt Q8WXS5 (Q8WXS5 whole entry, looked up): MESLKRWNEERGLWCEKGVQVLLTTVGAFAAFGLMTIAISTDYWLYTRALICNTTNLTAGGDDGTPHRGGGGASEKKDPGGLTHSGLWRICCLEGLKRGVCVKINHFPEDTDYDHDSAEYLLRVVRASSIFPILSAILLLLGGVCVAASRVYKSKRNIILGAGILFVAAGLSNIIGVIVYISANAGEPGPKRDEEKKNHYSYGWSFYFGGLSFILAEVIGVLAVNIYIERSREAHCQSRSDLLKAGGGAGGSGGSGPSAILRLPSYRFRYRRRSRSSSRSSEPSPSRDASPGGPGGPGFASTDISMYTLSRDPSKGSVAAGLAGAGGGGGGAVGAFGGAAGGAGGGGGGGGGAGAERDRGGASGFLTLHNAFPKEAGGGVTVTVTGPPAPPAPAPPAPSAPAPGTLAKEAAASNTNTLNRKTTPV

Substance	Kd [1]	Kd [2]
INAD PDZ3 (from UniProt Q24008)	0.13 µM	–
PSD-95 PDZ2 (from UniProt P78352)	–	40 µM
